# Experimental data published in IntAct's records for PubMed 11565033.
# B1: F-box/WD repeat-containing protein 7 (Drosophila melanogaster (Fruit fly)), Q9VZF4 (parent)
# chain: MERGCPAASSESVTSAGERTQSAVTSSTSTWVKSQASTSRKTEASEESGLGAVDAEVGAGREAFVSMSTLREDVEDVCVSSNSQHGFAVVLDDESSTFEISSSNSLPTSAGAASTVGVVAVDDSSSTDTLNGGHPDLGHPASSEHSRQGFFNEDNEDPPVVCLINDDDDDEEPEPEEDDEEELIEDEDEDAVDIVTGAISCPNTSQLALADGTIMAADGSKIFLETPVVEEAQPHPGQVVTTGSQSELTGKPKRLSDEFLLGEEDQAENLALGRCIKSEPVNPVDDNPSEGDDGATCFSLHDRLMSVRLKQMSLTANTVSNPSPAASANAAAPEEASTSNSSSTSSSALSRADIESMDLIERRDFETEQRLTGGIILRTSSMVSQNKLNLSLIKSMAGGSKAANGSGTANSDDWPSSSNGRTVSSDSKYTYKDLSTTPTSSRKYTNSRLSKSTAKLNLGSSLGASSCSQHRSGSSSTSKSMESSTSCTGAARTDVYTNTNSNDYPSLAPTTSGSSTSGGSCQQDQEENVSASVSYSSVGSQTSQESGCSRTTAINPTAACSTGSACLGDSQASTSASTSSGAGASNRCQYATTSTTKAARQVNASAQTQERFLTRSNPPAASGAGSVGANPTASVRQRRNGSSDVVHLEVVVEEGAGGGDGGVVEPGDFSAEEPWANCDEENNCSDLEEICTCQNGNGSSYGGSNASLSETFDMDAMDPDEPISLSLSSASAGFTEYSLTNPSSLMSHQRKRKFNEGRLLDGGDYSVTISSSGEVGGPGSGVSDNCRKRIAYDFASTPRSSQHLGPTAVLSVTPSSHLTSSTPGSALGRRTPRSVPSRDNPPPELQHWLAQFQRWSHVERLLALDRLIDHCDPSQVRHMMKVIEPQFQRDFISLLPRELALFVLSYLEPKDLLRAAQTCRSWRFLCDDNLLWKEKCRKAQILAEPRSDRPKRGRDGNMPPIASPWKAAYMRQHIIEMNWRSRPVRKPKVLKGHDDHVITCLQFSGNRIVSGSDDNTLKVWSAVNGKCLRTLVGHTGGVWSSQMSGNIIISGSTDRTLKVWDMDSGACVHTLQGHTSTVRCMHLHGSKVVSGSRDATLRVWDIEQGSCLHVLVGHLAAVRCVQYDGKLIVSGAYDYMVKIWHPERQECLHTLQGHTNRVYSLQFDGLHVVSGSLDTSIRVWDVETGNCKHTLMGHQSLTSGMELRQNILVSGNADSTVKVWDITTGQCLQTLSGPNKHHSAVTCLQFNSRFVVTSSDDGTVKLWDVKTGDFIRNLVALDSGGSGGVVWRIRANDTKLICAVGSRNGTEETKLMVLDFDVEGACVKCS
# partner: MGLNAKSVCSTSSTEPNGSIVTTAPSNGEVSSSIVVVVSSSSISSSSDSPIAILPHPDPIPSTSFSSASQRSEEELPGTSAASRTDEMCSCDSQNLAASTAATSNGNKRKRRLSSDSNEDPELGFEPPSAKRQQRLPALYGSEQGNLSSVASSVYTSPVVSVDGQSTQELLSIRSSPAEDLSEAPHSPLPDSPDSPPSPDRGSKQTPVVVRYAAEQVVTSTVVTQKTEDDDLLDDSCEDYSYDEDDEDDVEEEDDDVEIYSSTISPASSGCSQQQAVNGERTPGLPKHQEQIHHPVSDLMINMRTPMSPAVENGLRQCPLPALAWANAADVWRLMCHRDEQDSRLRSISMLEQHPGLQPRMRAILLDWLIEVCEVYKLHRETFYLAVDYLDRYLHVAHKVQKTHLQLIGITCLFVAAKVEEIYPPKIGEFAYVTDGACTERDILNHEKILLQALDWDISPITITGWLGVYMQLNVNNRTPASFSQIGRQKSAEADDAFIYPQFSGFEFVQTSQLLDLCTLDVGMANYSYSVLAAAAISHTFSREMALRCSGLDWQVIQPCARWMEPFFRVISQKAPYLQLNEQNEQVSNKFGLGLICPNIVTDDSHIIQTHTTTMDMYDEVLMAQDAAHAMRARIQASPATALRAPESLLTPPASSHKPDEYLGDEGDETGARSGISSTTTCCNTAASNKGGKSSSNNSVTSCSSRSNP
# Variants of: B1
# Conditions: with ccne_drome CycE
row,effect of a mutation on the interaction,Variant
1,decreasing interaction,G1131E
